Test results from patent publication US20260109980A1 (TRUSTEES OF COLUMBIA UNIVERSITY IN THE CITY OF NEW YORK, published 2026).

B1: Vibrio cholerae Cas6 (enzyme)
chain: not shown
notes: Ribonuclease subunit of Cascade, seen within the TniQ-Cascade cryo-EM structure; also called VchCas6; Csy4
B2: Vibrio cholerae Cas7 (other)
chain: not shown
notes: Six copies stand in Cascade; Cas7.1 is the monomer furthest from Cas8 and next to Cas6, and Cas7.2 is the next one; also called VchCas7; Cas7.1

Legend:
[1] = biological target: B2; assay: cryo-EM structure
[2] = biological target: B1; assay: cryo-EM structure

Row | Binder | binding result [1] | binding result [2]
1 | B1 | binds | 
2 | B2 |  | binds
